Common to all, as to conditions: remark: other sources report otherwise
The target in assay [1] is T1, Human USP25 (1-1055) (human), Q9UHP3.
T1 chain: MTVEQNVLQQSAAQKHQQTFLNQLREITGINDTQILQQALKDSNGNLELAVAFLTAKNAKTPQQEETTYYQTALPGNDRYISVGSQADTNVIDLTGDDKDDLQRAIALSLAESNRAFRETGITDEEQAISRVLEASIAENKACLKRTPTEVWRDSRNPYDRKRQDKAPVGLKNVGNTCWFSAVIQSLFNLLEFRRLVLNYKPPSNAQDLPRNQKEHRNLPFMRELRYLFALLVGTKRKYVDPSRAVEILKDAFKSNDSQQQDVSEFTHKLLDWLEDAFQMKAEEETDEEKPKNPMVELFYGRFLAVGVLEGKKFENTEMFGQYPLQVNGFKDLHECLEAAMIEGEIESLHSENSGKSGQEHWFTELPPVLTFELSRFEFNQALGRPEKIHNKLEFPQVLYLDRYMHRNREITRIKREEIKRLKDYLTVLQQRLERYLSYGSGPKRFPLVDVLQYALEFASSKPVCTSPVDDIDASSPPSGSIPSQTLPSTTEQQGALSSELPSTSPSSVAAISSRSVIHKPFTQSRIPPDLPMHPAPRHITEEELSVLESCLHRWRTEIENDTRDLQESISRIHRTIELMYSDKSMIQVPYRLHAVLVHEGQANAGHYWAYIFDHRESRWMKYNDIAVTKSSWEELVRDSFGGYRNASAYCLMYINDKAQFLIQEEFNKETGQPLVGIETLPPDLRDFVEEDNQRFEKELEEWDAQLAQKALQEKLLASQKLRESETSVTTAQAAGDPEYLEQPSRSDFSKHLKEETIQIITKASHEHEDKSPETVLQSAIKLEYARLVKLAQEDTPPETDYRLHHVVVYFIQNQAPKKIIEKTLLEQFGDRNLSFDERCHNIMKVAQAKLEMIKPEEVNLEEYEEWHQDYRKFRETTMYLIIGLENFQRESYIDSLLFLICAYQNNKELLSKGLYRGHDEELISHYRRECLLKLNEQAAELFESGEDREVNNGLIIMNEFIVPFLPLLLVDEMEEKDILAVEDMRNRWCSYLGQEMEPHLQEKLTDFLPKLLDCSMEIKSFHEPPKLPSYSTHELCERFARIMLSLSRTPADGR
Kind of assay: SEC + native gel or EMSA; recombinant full-length USP25 on HiLoad 16/600 Superdex 200 pg in buffer E immediately before native PAGE, Ponceau staining. For orientation: Mobility shift assays separate free from complexed probe on a gel.

Assay [2] has the same target. In words: SEC-MALS; five-fold dilution series (1 mg/mL, 0.2 mg/mL, 0.04 mg/mL sample concentration). (Size exclusion chromatography separates by hydrodynamic size, large species first.)
The target is the same in assay [3]. Kind of assay: not stated; oligomeric states of purified orthologs and of full-length proteins, Figures S7A, S7B and S3J.
Assay [4] has as its target T2, endogenous USP25 (human (endogenous in HEK293)), Q9UHP3.
T2 chain: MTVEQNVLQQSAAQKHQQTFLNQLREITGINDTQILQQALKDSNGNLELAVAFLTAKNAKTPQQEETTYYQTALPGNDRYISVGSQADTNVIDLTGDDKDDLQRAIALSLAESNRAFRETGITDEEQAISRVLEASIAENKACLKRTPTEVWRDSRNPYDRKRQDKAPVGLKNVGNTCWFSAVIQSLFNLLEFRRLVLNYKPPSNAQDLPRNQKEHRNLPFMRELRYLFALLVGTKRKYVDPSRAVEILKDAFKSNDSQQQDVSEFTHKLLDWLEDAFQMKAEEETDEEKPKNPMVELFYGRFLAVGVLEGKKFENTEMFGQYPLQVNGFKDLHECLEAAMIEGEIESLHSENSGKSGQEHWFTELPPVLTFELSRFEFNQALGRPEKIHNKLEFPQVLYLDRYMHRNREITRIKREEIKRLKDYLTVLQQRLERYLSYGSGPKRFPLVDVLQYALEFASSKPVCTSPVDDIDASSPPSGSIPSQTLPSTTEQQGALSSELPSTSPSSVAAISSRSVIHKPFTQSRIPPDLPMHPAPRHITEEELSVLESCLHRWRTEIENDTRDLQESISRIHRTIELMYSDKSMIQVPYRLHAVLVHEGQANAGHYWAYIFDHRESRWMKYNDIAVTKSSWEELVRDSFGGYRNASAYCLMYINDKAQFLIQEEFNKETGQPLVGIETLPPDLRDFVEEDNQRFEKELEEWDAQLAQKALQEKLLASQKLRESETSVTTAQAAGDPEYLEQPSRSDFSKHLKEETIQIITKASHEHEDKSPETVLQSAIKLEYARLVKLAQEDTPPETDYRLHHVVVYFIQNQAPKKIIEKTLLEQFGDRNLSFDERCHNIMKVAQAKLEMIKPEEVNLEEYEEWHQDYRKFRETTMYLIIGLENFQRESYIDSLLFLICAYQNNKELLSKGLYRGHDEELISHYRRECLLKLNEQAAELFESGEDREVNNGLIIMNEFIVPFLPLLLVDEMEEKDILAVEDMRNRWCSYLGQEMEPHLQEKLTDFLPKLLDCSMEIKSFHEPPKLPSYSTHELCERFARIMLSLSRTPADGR
In words: native gel or EMSA; native PAGE of lysate of untreated HEK293 cells, immunoblotting for the endogenous protein; recombinant USP25 tetramer and dimer fractions as size standard.

Where “and” joins values, the source holds several entries; their conditions need not be identical. Identical values can stand only once.

The term stoichiometry N denotes the number of molecules, sites or subunits per partner or assembly.

B1: Human USP25 (1-1055), Q9UHP3 1-1055 (enzyme)
chain: MTVEQNVLQQSAAQKHQQTFLNQLREITGINDTQILQQALKDSNGNLELAVAFLTAKNAKTPQQEETTYYQTALPGNDRYISVGSQADTNVIDLTGDDKDDLQRAIALSLAESNRAFRETGITDEEQAISRVLEASIAENKACLKRTPTEVWRDSRNPYDRKRQDKAPVGLKNVGNTCWFSAVIQSLFNLLEFRRLVLNYKPPSNAQDLPRNQKEHRNLPFMRELRYLFALLVGTKRKYVDPSRAVEILKDAFKSNDSQQQDVSEFTHKLLDWLEDAFQMKAEEETDEEKPKNPMVELFYGRFLAVGVLEGKKFENTEMFGQYPLQVNGFKDLHECLEAAMIEGEIESLHSENSGKSGQEHWFTELPPVLTFELSRFEFNQALGRPEKIHNKLEFPQVLYLDRYMHRNREITRIKREEIKRLKDYLTVLQQRLERYLSYGSGPKRFPLVDVLQYALEFASSKPVCTSPVDDIDASSPPSGSIPSQTLPSTTEQQGALSSELPSTSPSSVAAISSRSVIHKPFTQSRIPPDLPMHPAPRHITEEELSVLESCLHRWRTEIENDTRDLQESISRIHRTIELMYSDKSMIQVPYRLHAVLVHEGQANAGHYWAYIFDHRESRWMKYNDIAVTKSSWEELVRDSFGGYRNASAYCLMYINDKAQFLIQEEFNKETGQPLVGIETLPPDLRDFVEEDNQRFEKELEEWDAQLAQKALQEKLLASQKLRESETSVTTAQAAGDPEYLEQPSRSDFSKHLKEETIQIITKASHEHEDKSPETVLQSAIKLEYARLVKLAQEDTPPETDYRLHHVVVYFIQNQAPKKIIEKTLLEQFGDRNLSFDERCHNIMKVAQAKLEMIKPEEVNLEEYEEWHQDYRKFRETTMYLIIGLENFQRESYIDSLLFLICAYQNNKELLSKGLYRGHDEELISHYRRECLLKLNEQAAELFESGEDREVNNGLIIMNEFIVPFLPLLLVDEMEEKDILAVEDMRNRWCSYLGQEMEPHLQEKLTDFLPKLLDCSMEIKSFHEPPKLPSYSTHELCERFARIMLSLSRTPADGR
For the molecule B1, the stoichiometry N is 4 and 2 in assay [1]; 4 and 2 in assay [2]; 2 and 4 in assay [3].

B2: endogenous USP25, Q9UHP3 1-1055 (enzyme)
chain: MTVEQNVLQQSAAQKHQQTFLNQLREITGINDTQILQQALKDSNGNLELAVAFLTAKNAKTPQQEETTYYQTALPGNDRYISVGSQADTNVIDLTGDDKDDLQRAIALSLAESNRAFRETGITDEEQAISRVLEASIAENKACLKRTPTEVWRDSRNPYDRKRQDKAPVGLKNVGNTCWFSAVIQSLFNLLEFRRLVLNYKPPSNAQDLPRNQKEHRNLPFMRELRYLFALLVGTKRKYVDPSRAVEILKDAFKSNDSQQQDVSEFTHKLLDWLEDAFQMKAEEETDEEKPKNPMVELFYGRFLAVGVLEGKKFENTEMFGQYPLQVNGFKDLHECLEAAMIEGEIESLHSENSGKSGQEHWFTELPPVLTFELSRFEFNQALGRPEKIHNKLEFPQVLYLDRYMHRNREITRIKREEIKRLKDYLTVLQQRLERYLSYGSGPKRFPLVDVLQYALEFASSKPVCTSPVDDIDASSPPSGSIPSQTLPSTTEQQGALSSELPSTSPSSVAAISSRSVIHKPFTQSRIPPDLPMHPAPRHITEEELSVLESCLHRWRTEIENDTRDLQESISRIHRTIELMYSDKSMIQVPYRLHAVLVHEGQANAGHYWAYIFDHRESRWMKYNDIAVTKSSWEELVRDSFGGYRNASAYCLMYINDKAQFLIQEEFNKETGQPLVGIETLPPDLRDFVEEDNQRFEKELEEWDAQLAQKALQEKLLASQKLRESETSVTTAQAAGDPEYLEQPSRSDFSKHLKEETIQIITKASHEHEDKSPETVLQSAIKLEYARLVKLAQEDTPPETDYRLHHVVVYFIQNQAPKKIIEKTLLEQFGDRNLSFDERCHNIMKVAQAKLEMIKPEEVNLEEYEEWHQDYRKFRETTMYLIIGLENFQRESYIDSLLFLICAYQNNKELLSKGLYRGHDEELISHYRRECLLKLNEQAAELFESGEDREVNNGLIIMNEFIVPFLPLLLVDEMEEKDILAVEDMRNRWCSYLGQEMEPHLQEKLTDFLPKLLDCSMEIKSFHEPPKLPSYSTHELCERFARIMLSLSRTPADGR
Take B2: in assay [4], the stoichiometry N is 2 and 4.
